Results as given in paper doi:10.1101/2021.02.27.433189.

Target: AMPAR subunit GluA1, flip isoform (UniProt P19490)

Row | Binder | receptor recovery from desensitization, τrec (GluA1 alone 162.6 ms) [ms]
1 | ncAA-tagged TARP γ2 S44* with eGFP in the C-tail (natural protein, TCO*A (trans-cyclooct-2-en-L-lysine) at position 44) MGLFDRGVQMLLTTVGAFAAFSLMTIAVGTDYWLYSRGVCKTKKVSENETSKKNEEVMTHSGLWRTCCLEGNFKGLCKQIDHFPEDADYEADTAEYFLRAVRASSIFPILSVILLFMGGLCIAASEFYKTRHNIILSAGIFFVSAGLSNIIGIIVYISANAGDPSKSDSKKNSYSYGWSFYFGALSFIIAEMVGVLAVHMFIDRHKQLRATARATDYLQASAITRIPSYRYRYQRRSRSSSRSTEPSHSRDASPVGVKGFNTLPSTEISMYTLSRDPLKAATTPTATYNSDRDNSFLQVHNCIQKDSKDSLHANTANRRTTPV | 62.3
2 | TARP γ2 with eGFP in the C-tail (natural protein) MGLFDRGVQMLLTTVGAFAAFSLMTIAVGTDYWLYSRGVCKTKSVSENETSKKNEEVMTHSGLWRTCCLEGNFKGLCKQIDHFPEDADYEADTAEYFLRAVRASSIFPILSVILLFMGGLCIAASEFYKTRHNIILSAGIFFVSAGLSNIIGIIVYISANAGDPSKSDSKKNSYSYGWSFYFGALSFIIAEMVGVLAVHMFIDRHKQLRATARATDYLQASAITRIPSYRYRYQRRSRSSSRSTEPSHSRDASPVGVKGFNTLPSTEISMYTLSRDPLKAATTPTATYNSDRDNSFLQVHNCIQKDSKDSLHANTANRRTTPV | 57.1
3 | TARP γ8 with eGFP in the C-tail (natural protein) MESLKRWNEERGLWCEKGVQVLLTTIGAFAAFGLMTIAISTDYWLYTRALICNTTNLTAGDDGPPHRGGSGSSEKKDPGGLTHSGLWRICCLEGLKRGVCVKINHFPEDTDYDHDSAEYLLRVVRASSIFPILSAILLLLGGVCVAASRVYKSKRNIILGAGILFVAAGLSNIIGVIVYISANAGEPGPKRDEEKKNHYSYGWSFYFGGLSFILAEVIGVLAVNIYIERSREAHCQSRSDLLKAGGGAGGSGGSGPSAILRLPSYRFRYRRRSRSSSRGSSEASPSRDASPGGPGGPGFASTDISMYTLSRDPSKGSVAAGLASAGGGGGGAGVGAYGGAAGAAGGGGTGSERDRGSSAGFLTLHNAFPKEAASGVTVTVTGPPAAPAPAPPAPAAPAPGTLSKEAAASNTNTLNRKTTPV | 40.9
4 | ncAA-tagged TARP γ8 S72* with eGFP in the C-tail (natural protein, TCO*A (trans-cyclooct-2-en-L-lysine) at position 72) MESLKRWNEERGLWCEKGVQVLLTTIGAFAAFGLMTIAISTDYWLYTRALICNTTNLTAGDDGPPHRGGSGKSEKKDPGGLTHSGLWRICCLEGLKRGVCVKINHFPEDTDYDHDSAEYLLRVVRASSIFPILSAILLLLGGVCVAASRVYKSKRNIILGAGILFVAAGLSNIIGVIVYISANAGEPGPKRDEEKKNHYSYGWSFYFGGLSFILAEVIGVLAVNIYIERSREAHCQSRSDLLKAGGGAGGSGGSGPSAILRLPSYRFRYRRRSRSSSRGSSEASPSRDASPGGPGGPGFASTDISMYTLSRDPSKGSVAAGLASAGGGGGGAGVGAYGGAAGAAGGGGTGSERDRGSSAGFLTLHNAFPKEAASGVTVTVTGPPAAPAPAPPAPAAPAPGTLSKEAAASNTNTLNRKTTPV | 45.8
